{"source": "patent US20100105141", "experiment_in_all_cases": "SPR", "key": {"[1]": {"biological_target": "wt TetR(B) (Tn10, Gly inserted after Met1) (Escherichia coli) (UniProt P04483)", "details": "ka 3.3e5 M-1 s-1, kd 3.0e-3 s-1; operator sequence used on chip not stated"}, "[2]": {"system": "L7-3E03-D1 (EsR4) L55M,H64A,F67Y,F86M,H100C,R104G,P105F,K108Q,L113A,Q116S,N129H,L131M,L134M,S135Q,V137A,H139I,F140Y,E147L,H151L,L170V,I174L,F177K (synthetic)", "details": "ka 5.5e4 M-1 s-1, kd 1.1e-2 s-1"}, "[3]": {"system": "L7-1C03-A5 (EsR1) L55M,H64A,F67V,S85I,F86M,H100C,R104G,P105F,K108Q,L113A,Q116S,N129H,L134M,S135Q,V137A,H139I,E147L,H151L,L170V,I174L,F177N (synthetic)", "details": "ka 4.7e4 M-1 s-1, kd 7.8e-3 s-1"}, "[4]": {"biological_target": "L7-1G06-B2 L55M,H64A,F67Y,F86M,H100C,R104G,P105F,K108Q,L113A,Q116S,L117M,L134M,S135Q,H139I,F140Y,E147L,H151L,L170V,I174L,F177K (synthetic) (UniProt P04483)", "details": "ka 4.6e4 M-1 s-1, kd 1.9e-2 s-1"}, "[5]": {"biological_target": "L7-1F08-A11 (L7-A11, EsR2) L55M,H64A,F67Y,F86M,H100C,R104G,P105F,K108Q,L113A,Q116S,L134M,S135Q,H139I,F140Y,E147L,H151L,L170V,I174L,F177K (synthetic) (UniProt P04483)", "details": "ka 7.1e4 M-1 s-1, kd 1.7e-2 s-1"}}, "note": "pKd: −log10 of the molar value."}
{"substance": "tet operator (Biacore)", "values": [{"measurement": "pKd", "setting": "[1]", "result": 8.05}, {"measurement": "pKd", "setting": "[2]", "result": 6.70}, {"measurement": "pKd", "setting": "[3]", "result": 6.82}, {"measurement": "pKd", "setting": "[4]", "result": 6.37}, {"measurement": "pKd", "setting": "[5]", "result": 6.60}]}
